Patent publication US20230071765A1, “COMPOSITIONS HAVING THIOREDOXIN ACTIVITY AND RELATED METHODS” (ORPRO THERAPEUTICS, INC., priority 2020, published 2023)

What was measured:
[1] = check for precipitates by centrifugation; type: physicochemical; settings: 25° C., 0-232 hours
Procedure: The stability of ORP100S without the red fraction was evaluated at room temperature (25° C.) by SEC analysis as described in the preceding Examples. Protein solutions were prepared in PBS (saline) at concentrations of 70, 80, 90, 100 and 110 mg/ml corresponding to 6.0, 6.8, 7.7, 8.5 and 9.4 mM. These were incubated at room temperature for 0, 20, 44, 68, 140, 188 and 232 hours. At each time point tubes were centrifuged at 1000 RFC to check for precipitates and percent monomeric ORP100S determined by SEC. Additionally, at the 68 hr time point DTNB assays were performed to evaluate the degree of reduction.

human insulin = biological target: T1, human insulin (Homo sapiens, UniProt P01308); assay: RP-HPLC insulin reduction assay (conversion of insulin heterodimer); type: biochemical; settings: for Relative % insulin reduction: relative to maximum
T1 construct: The two chains of human insulin have a total of six Cys residues which form three disulfide bonds in its mature structure
T1 sequence (P01308 25-54 limits assumed): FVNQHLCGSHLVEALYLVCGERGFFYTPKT
T1 sequence (P01308 90-110 limits assumed): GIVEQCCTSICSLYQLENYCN
Procedure: Functional assays 1. Reduction state of ORP100S was quantified using DTNB which reacts with free SH groups resulting in a yellow color change at 412 nm. Fifty microliters of 2.5 mM rhTrx was added to a 96-well plate, followed by 175 microliters of sample buffer and 25 microliters of 6 mM DTNB. After reactions were initiated by the addition of DTNB, change in kinetic absorbance at 412 nm due to DTNB reduction was monitored spectrophotometrically at 30° C. ORP100S concentration was determined by A280 (Nanodrop) using the extinction coefficient of human Trx-1 (7,000). The actual concentrations of free sulfhydryl groups were calculated based on the absorbance at 412 nm and the extinction coefficient of DTNB (14,150) in order to determine the reduction state as percentage of free sulfhydryl. […] 2. Percent of free monomer ORP100S in solution was determined using SEC. Samples were analyzed on a BioBasic S-300 250×4.6 column (Thermo Scientific) run on an Agilent 1100 HPLC system. The SEC-HPLC mobile phase buffer consisted of 40 mM ammonium acetate (pH 5.5), 2 mM EDTA and 450 mM NaCl. Low pH minimized dimerization while the 450 mM NaCl concentration improved resolution. The flow rate was 0.35 mL/min and absorbance was monitored at 280 nm. The length of each run was 20 minutes. The ORP100S monomer percentage was determined by integration of the area under the peak of the monomeric fraction divided by the total area under the curve of the chromatogram. 3. Disulfide bond reduction activity of ORP100S was quantified by assaying the reduction state of a small protein (human insulin) which in its heterodimeric form contains two intermolecular and one intramolecular disulfide, all three of which are known to be suitable thioredoxin substrates. Insulin reduction has classically been used to quantify thioredoxin activity by absorbance change following addition of NADPH and TrxR (Holmgren A., 1979, Thioredoxin catalyzes the reduction of insulin disulfides by dithiothreitol and dihydrolipoamide, J Biol Chem 254:9627-32). Such an approach is not suitable for monothiol C35S thioredoxins ORP-100 and ORP100S due to 1) the lack of cycling resulting from stoichiometric covalent linkage to the disulfide bond substrate and 2) the inability of NADPH and TrxR to reduce Cys32 of the oxidized monothiol Trx active site. Consequently, a new assay was developed based on the use of reverse-phase (RP) HPLC to monitor the rate of conversion of disulfide-bonded insulin heterodimers to monomeric forms. The two chains of human insulin have a total of six Cys residues which form three disulfide bonds in its mature structure. When ORP100S in the reduced form is incubated with dimeric insulin it reacts with these disulfide bonds to disrupt them, simultaneously forming covalent linkages to the ORP100S Cys32. […] The ORP100S samples were incubated with 10 mg/mL insulin for various time points (0-90 min) and the reactions were stopped by addition of iodacetic acid (IA) and trifluoroacetic acid (TFA). Relative activity at each time point was determined from changes in the area under the insulin heterodimer peak following separation over RP-HPLC (Agilent 1100) using an Intrada WP-RP 50×3 (Imtakt) column. Buffer A was 0.1% TFA and Buffer B was 0.1% TFA in acetonitrile. The gradient was […] in 5 min followed by 30 to 60% B in 45 min, then 60 to 80% B for an additional 5 min. The flow rate was 0.2 mL/min and absorbance was measured at 280 nm. In order to evaluate the change in the intact insulin molecule a time 0 baseline was first established using 1 M IA and 0.1% TFA without the addition of ORP100S. The area under the intact insulin heterodimer peak was then determined and set as equivalent to 100%. After the reaction with ORP100S the area of the intact insulin peak (corresponding to retention time) was measured. The percent reduction in intact insulin was then calculated from the decrease in the area following reduction divided by the area at time 0 multiplied by 100.

B1: ORP100S: thioredoxin with monothiol active site, Cys35 and non-active Cys 62, 69 and 73 substituted with serine (SEQ ID NO:29) (protein)
chain: MVKQIESKTAFQEALDAAGDKLVVVDFSATWCGPSKMIKPFFHSLSEKYSNVIFLEVDVDDSQDVASESEVKSMPTFQFFKKGQKVGEFSGANKEKLEATINELV
modifications: synthetic peptide motif
**Q.** Which “Precipitate (all time points)” value ([1]; 70 mg/mL in PBS) does the source give for B1 here?
**A.** None

**Q.** And the “Precipitate (all time points)” value ([1]; 80 mg/mL in PBS)?
**A.** None

**Q.** And the “Precipitate (all time points)” value ([1]; 90 mg/mL in PBS)?
**A.** None

**Q.** And the “Precipitate (all time points)” value ([1]; 100 mg/mL in PBS)?
**A.** None

**Q.** And the “Precipitate (all time points)” value ([1]; 110 mg/mL in PBS)?
**A.** None

**Q.** And the “Relative % insulin reduction” value (human insulin; Ox:Red 0:100 mixture)?
**A.** 100%

**Q.** And the “Relative % insulin reduction” value (human insulin; Ox:Red 25:75 mixture)?
**A.** 72%

**Q.** What about the “Relative % insulin reduction” value (human insulin; Ox:Red 50:50 mixture) of the same molecule?
**A.** 51%

**Q.** What about the “Relative % insulin reduction” value (human insulin; Ox:Red 75:25 mixture) of the same molecule?
**A.** 36%

**Q.** What about the “Relative % insulin reduction” value (human insulin; Ox:Red 100:0 mixture) of the same molecule?
**A.** 8%

**Q.** And the “maximum insulin heterodimer reaction” value (human insulin; fully reduced material, time and conditions used)?
**A.** 45%
